We go through two molecules from patent US20260258125A1 (NONA BIOSCIENCES SUZHOU, published 2026).

Experiment [1] deals with T1, human CEACAM6 on 293T cells (293T-huCEACAM6 cells) (human, UniProt P40199 35-320).
T1 sequence (looked up): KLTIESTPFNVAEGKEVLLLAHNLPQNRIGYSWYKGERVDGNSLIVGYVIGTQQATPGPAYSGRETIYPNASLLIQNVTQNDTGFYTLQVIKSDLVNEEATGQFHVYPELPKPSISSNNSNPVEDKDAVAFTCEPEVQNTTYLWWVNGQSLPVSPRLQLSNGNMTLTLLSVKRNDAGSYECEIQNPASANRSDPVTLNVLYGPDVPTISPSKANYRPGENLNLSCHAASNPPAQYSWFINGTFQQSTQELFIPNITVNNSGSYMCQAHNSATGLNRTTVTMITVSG
Nature of the experiment: cell-based or functional assay.

The target in experiment [2] is T2, human CEACAM5 on 293T cells (293T-huCEACAM5 cells) (human, UniProt P06731 35-685).
T2 sequence (looked up): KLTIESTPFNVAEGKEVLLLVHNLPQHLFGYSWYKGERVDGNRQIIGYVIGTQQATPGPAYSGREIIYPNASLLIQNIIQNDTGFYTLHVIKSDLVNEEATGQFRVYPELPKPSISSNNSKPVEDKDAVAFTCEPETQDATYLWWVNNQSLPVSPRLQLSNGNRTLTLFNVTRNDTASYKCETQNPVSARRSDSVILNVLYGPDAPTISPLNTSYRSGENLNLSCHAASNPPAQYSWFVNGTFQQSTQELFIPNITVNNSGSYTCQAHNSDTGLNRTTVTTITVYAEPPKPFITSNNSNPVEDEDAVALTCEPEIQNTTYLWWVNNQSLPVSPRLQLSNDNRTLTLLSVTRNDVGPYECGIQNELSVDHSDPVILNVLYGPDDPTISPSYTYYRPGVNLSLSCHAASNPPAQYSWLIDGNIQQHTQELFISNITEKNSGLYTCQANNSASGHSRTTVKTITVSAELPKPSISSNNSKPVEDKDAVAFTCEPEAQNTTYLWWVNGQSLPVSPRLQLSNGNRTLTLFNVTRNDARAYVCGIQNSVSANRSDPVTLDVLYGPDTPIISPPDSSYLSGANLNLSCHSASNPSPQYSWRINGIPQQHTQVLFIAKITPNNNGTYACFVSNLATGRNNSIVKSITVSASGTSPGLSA
Nature of the experiment: cell-based or functional assay.

In experiment [3] the target is T3, human CEACAM3 protein (human, UniProt P40198 35-155).
T3 construct: Bought protein; also called huCEACAM3
T3 sequence (looked up): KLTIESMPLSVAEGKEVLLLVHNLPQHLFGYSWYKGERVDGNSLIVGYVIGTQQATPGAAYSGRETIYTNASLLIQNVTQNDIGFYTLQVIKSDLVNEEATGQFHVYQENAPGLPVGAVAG
The experiment can be described thus: ELISA, human CEACAM3 protein coated on the plate, anti-human Fc-HRP, OD450. From the text: (§1) Binding of recombinant anti-CEACAM5/6 dual-binding monoclonal antibodies against human and cynomolgus CEACAM5, and human CEACAM6 (Uniprot P40199), human CEACAM 1, 3 (NP_001806.2, Sino Biological 11933-H08H) and 8 (NP_001807.2, Acro Bio CE8-H5224) were detected by ELISA. Anti-CEACAM5/6 dual-antibodies were serially diluted in staining buffer (PBS containing 2% FBS). […] ELISA was used to test the binding between antibody containing supernatant or purified antibodies and the antigen. Briefly, the antigens were coated on a 96-well high binding plate overnight at 4° C. The plate was washed with PBST three times, incubated with blocking buffer (2% Bovine Serum Albumin) for one hour at 37° C., washed with PBST three times and incubated with antibody containing supernatant or purified antibodies at desired dilutions or concentrations for one hour at 37° C. A secondary antibody, anti-human Fc-HRP (Jackson Laboratory, 109-035-097) was used for detection of the targeted antibody. TMB and stopping solution were used for detection of HRP signal. The HRP signal was read on a SPECTRAMAX plate reader.
A general note: In an ELISA, binding on a coated surface is turned into a signal by an enzyme label.

Experiment [4] concerns the target T1, human CEACAM6 on 293T cells …. Nature of the experiment: flow cytometry on 293T-huCEACAM6 cells with against without 100 nM soluble CEACAM6. On the technique in general: In flow cytometry, cells or beads pass a laser one at a time.
The target in experiment [5] is T2, human CEACAM5 on 293T cells …. Nature of the experiment: flow cytometry on 293T-huCEACAM5 cells with against without 100 nM soluble CEACAM5.
Experiment [6] has as its target T4, human CEACAM8 protein (human, UniProt P31997 35-320).
T4 construct: Bought protein; also called huCEACAM8
T4 sequence (looked up): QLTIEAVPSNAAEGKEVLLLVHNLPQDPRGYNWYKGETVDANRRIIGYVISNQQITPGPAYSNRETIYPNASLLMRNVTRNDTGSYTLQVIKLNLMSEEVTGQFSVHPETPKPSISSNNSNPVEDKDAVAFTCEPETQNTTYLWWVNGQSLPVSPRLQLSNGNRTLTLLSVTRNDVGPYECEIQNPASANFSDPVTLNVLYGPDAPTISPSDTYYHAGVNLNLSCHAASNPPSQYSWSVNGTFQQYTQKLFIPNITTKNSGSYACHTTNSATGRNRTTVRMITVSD
The experiment can be described thus: ELISA, human CEACAM8 protein coated on the plate, anti-human Fc-HRP, OD450.
Source text: as §1

The target of experiment [7] is T4, human CEACAM8 protein. Nature of the experiment: ELISA, antigen coated on plate.
Source text: as §1

Experiment [8] deals with T3, human CEACAM3 protein. The experiment can be described thus: ELISA, antigen coated on plate.
Source text: as §1

B1: PR304294 (antibody, human IgG1, kappa, V domains shown)
VH: EVQLLESGGGLVQPGGSLRLSCAASGFTFSSYAMSWVRQAPGKGLEWVSAISGTTYNTYYAGSVKGRFTISRDNSKNTLYLQMNSLRAEDTAVYYCAKGISVAGYYYYGMDVWGQGTTVTVSS
VL: EIVMTQSPATLSVSPGERATLSCRASQSVISNLAWYQQKPGQAPRLLIYGASTRATGIPARFSGSGSGTEFTLTISSLQSEDFAVYYCHQYNNWPLTFGGGTKVEIKR
notes: Recombinant full antibody
In the case of B1, the “Internalization of pHAb-dye-labelled antibody, MFI (37° C.-4° C.)/DAR” value turned out to be 14700 in experiment [1] and 11300 in experiment [2]. Further, the binding result with human CEACAM3 protein [3] was “no binding (tested: 100 nM)”; with human CEACAM8 protein [6], “no binding (tested: 10 nM)”. Further, the “fold change of EC50 at the presence of 100 nM soluble protein” value in experiment [4] was 2.1 fold; in experiment [5] it was 4.1 fold.

B2: PR304171 (antibody, human IgG1, kappa, V domains shown)
VH: not shown
VL: EIVMTQSPATLSVSPGERATLSCRASQNVISNLAWHQQKPGQAPRLLIYTTSTRATGIPARFSGSGSGTEFTLTISSLQSEDFAVYYCQQYNNWPLTFGGGTKVEIKR
notes: Recombinant full antibody
Take B2: the binding result with human CEACAM8 protein [7] and with human CEACAM3 protein [8] was “no binding” each time.
